# Laboratory results: patent US20140134132A1
# Biological target: organic anion transporting polypeptide 1B1 (UniProt Q9Y6L6)
# Experiment: cell-based or functional assay
# organic anion transporting polypeptide 1B1, sequence (Q9Y6L6 whole entry): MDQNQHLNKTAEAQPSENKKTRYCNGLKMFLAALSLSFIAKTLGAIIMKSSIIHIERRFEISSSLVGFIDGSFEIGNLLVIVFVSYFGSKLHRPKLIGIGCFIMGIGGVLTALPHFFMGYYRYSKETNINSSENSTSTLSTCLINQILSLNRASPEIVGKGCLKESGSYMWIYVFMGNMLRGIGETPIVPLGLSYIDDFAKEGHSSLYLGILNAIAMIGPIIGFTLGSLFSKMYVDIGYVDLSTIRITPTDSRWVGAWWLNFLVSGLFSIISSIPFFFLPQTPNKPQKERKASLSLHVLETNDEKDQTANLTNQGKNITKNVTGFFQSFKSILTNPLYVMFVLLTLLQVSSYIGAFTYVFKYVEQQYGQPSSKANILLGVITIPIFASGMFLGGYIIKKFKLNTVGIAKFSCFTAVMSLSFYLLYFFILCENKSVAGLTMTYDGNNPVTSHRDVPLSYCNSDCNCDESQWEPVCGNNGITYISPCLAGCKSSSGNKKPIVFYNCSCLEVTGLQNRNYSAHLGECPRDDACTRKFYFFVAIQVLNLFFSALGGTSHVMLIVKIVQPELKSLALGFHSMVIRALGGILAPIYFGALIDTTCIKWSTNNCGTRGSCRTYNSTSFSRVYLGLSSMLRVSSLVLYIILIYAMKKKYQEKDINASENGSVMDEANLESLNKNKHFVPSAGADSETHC
row,Substance,OATP1B13 IC50 [µM]
1,"3-[D-Ala]-4-[(2S,3R)-3-methyl-2-(methylamino)-4-morpholinobutanoyl]-cyclosporin (peptide)",8.2
2,"3-[D-Ala]-4-[(2S,3R)-5-methoxy-3-methyl-2-(methylamino)pentanoyl]-cyclosporin (peptide)",2.3
3,"3-[D-Ala]-4-[(2S,3R)-6-(4-(2-methoxyethyl)piperazin-1-yl)-3-methyl-2-(methylamino)hexanoyl]-cyclosporin (peptide)",2.2
4,"3-[D-Ala]-4-[(2S,3R)-6-(4-ethylpiperazin-1-yl)-3-methyl-2-(methylamino)hexanoyl]-cyclosporin (peptide)",2.6
5,"3-[D-Ala]-4-[(2S,3R)-6-(4-methoxypiperidin-1-yl)-3-methyl-2-(methylamino)hexanoyl]-cyclosporin (peptide)",4.3
6,"3-[D-Ala]-4-[(2S,3R)-6-(8-oxa-3-azabicyclo[3.2.1]octan-3-yl)-3-methyl-2-(methylamino)-6-oxohexanoyl]-cyclosporin (peptide)",1.9
7,"3-[D-Ala]-4-[(2S,3S)-3-methyl-2-(methylamino)-4-(2-(4-methylpiperazin-1-yl)-2-oxoethoxy)butanoyl]-cyclosporin (peptide)",9.4
8,"3-[D-Ala]-4-[(2S,3S)-3-methyl-2-(methylamino)-4-(2-oxo-2-(piperazin-1-yl)ethoxy)butanoyl]-cyclosporin (peptide)",6.9
9,"3-[D-Ala]-4-[(2S,3S)-3-methyl-2-(methylamino)-4-((S)-3-oxotetrahydro-1H-oxazolo[3,4-a]pyrazin-7(3H)-yl)butanoyl]-cyclosporin (peptide)",1.4
10,"3-[D-Ala]-4-[(2S,3S)-4-(2-(4-isopropylpiperazin-1-yl)-2-oxoethoxy)-3-methyl-2-(methylamino)butanoyl]-cyclosporin (peptide)",8
11,"3-[D-Ala]-4-[(2S,3S)-4-((4-ethylpiperazine-1-carbonyl)oxy)-3-methyl-2-(methylamino)butanoyl]-cyclosporin (peptide)",1.9
12,"3-[D-Ala]-4[(2S,3R)-2-Amino-3-methyl-4-(4-oxetan-3-yl-piperazin-1-yl)]-butanoyl]-cyclosporin (peptide)",1.17
13,"3-[D-Ala]-4[(2S,3R)-2-Amino-4-(4-cyclobutyl-piperazin-1-yl)-butanoyl]-cyclosporin (peptide)",5.2
14,"3-[D-Ala]-4[(2S,3R)-2-Amino-4-(4-ethyl-piperazin-1-yl)-butanoyl]-cyclosporin (peptide)",4.56
15,"3-[D-Ala]-4[(2S,3S)-2-Amino-4-(4-cyclobutyl-piperazin-1-yl)-3-methyl-butanoyl]-cyclosporin (peptide)",4
16,"3-[D-Ala]-4[(2S,3S)-2-Amino-4-(4-ethyl-piperazin-1-yl)-3-methyl-butanoyl]-cyclosporin (peptide)",5.1

# Further lines, results first:
row,OATP1B13 IC50 [µM],Substance
1,4.8,"3-[D-Ala]-4-[(2S,3R)-3-methyl-2-(methylamino)-4-(4-(methylsulfonyl)piperazin-1-yl)butanoyl]-cyclosporin (peptide)"
2,2.1,"3-[D-Ala]-4-[(2S,3R)-5-(4-cyclobutylpiperazin-1-yl)-3-methyl-2-(methylamino)pentanoyl]-cyclosporin (peptide)"
3,2.2,"3-[D-Ala]-4-[(2S,3R)-6-hydroxy-3,6-dimethyl-2-(methylamino)heptanoyl]-cyclosporin (peptide)"
4,8.7,"3-[D-Ala]-4-[(2S,3S)-3-methyl-2-(methylamino)-4-(2-((4-methylpiperazine-1-carbonyl)oxy)ethoxy)butanoyl]-cyclosporin (peptide)"
5,4.8,"3-[D-Ala]-4-[(2S,3S)-3-methyl-2-(methylamino)-4-(2-((S)-3-methylmorpholino)ethoxy)butanoyl]-cyclosporin (peptide)"
6,7.6,"3-[D-Ala]-4-[(2S,3S)-3-methyl-2-(methylamino)-4-(2-morpholinoethoxy)butanoyl]-cyclosporin (peptide)"
7,1.9,"3-[D-Ala]-4-[(2S,3S)-3-methyl-2-(methylamino)-4-(((S)-tetrahydrofuran-3-yl)oxy)butanoyl]-cyclobsporin (peptide)"
8,2.3,"3-[D-Ala]-4-[(2S,3S)-3-methyl-2-(methylamino)-4-((morpholine-4-carbonyl)oxy)butanoyl]-cyclosporin (peptide)"
9,1.9,"3-[D-Ala]-4-[(2S,3S)-3-methyl-4-(2-(methyl(2,2,2-trifluoroethyl)amino)ethoxy)-2-(methylamino)butanoyl]-cyclosporin (peptide)"
10,3.5,"3-[D-Ala]-4-[(2S,3S)-4-(2-(4-cyclohexylpiperazin-1-yl)-2-oxoethoxy)-3-methyl-2-(methylamino)butanoyl]-cyclosporin (peptide)"
11,4.4,"3-[D-Ala]-4-[(2S,3S)-4-(2-(4-isopropylpiperazin-1-yl)ethoxy)-3-methyl-2-(methylamino)butanoyl]-cyclosporin (peptide)"
12,3.6,"3-[D-Ala]-4-[(2S,3S)-4-(2-((2R,5R)-2,5-dimethylmorpholino)ethoxy)-3-methyl-2-(methylamino)butanoyl]-cyclosporin (peptide)"
13,5,"3-[D-Ala]-4-[(2S,3S)-4-(2-((S)-3-methoxypyrrolidin-1-yl)ethoxy)-3-methyl-2-(methylamino)butanoyl]-cyclosporin (peptide)"
14,4.3,"3-[D-Ala]-4-[(2S,3S)-4-(((S)-4-isopropylmorpholin-2-yl)methoxy)-3-methyl-2-(methylamino)butanoyl]-cyclosporin (peptide)"
15,3.6,"3-[D-Ala]-4-[(2S,3S)-4-hydroxy-3-methyl-2-(methylamino)butanoyl]-cyclosporin (peptide)"
16,2.6,3-[D-Ala]-4-[(S)-4-methoxy-3-(methoxymethyl)-2-(methylamino)butanoyl]-cyclosporin (peptide)
17,2.44,"3-[D-Ala]-4[(2S,3R)-2-Amino-4-(4-isopropyl-piperazin-1-yl)-butanoyl]-cyclosporin (peptide)"
18,6.1,"3-[D-Ala]-4[(2S,3R)-2-Amino-4-[4-(2-methoxy-ethyl)-piperazin-1-yl]-3-methyl-butanoyl]-cyclosporin (peptide)"
19,1.8,"3-[D-Ala]-4[(2S,3S)-2-Amino-3-methyl-4-(4-oxetan-3-yl-piperazin-1-yl)-butanoyl]-cyclosporin (peptide)"
20,3.6,"3-[D-Ala]-4[(2S,3S)-2-Amino-3-methyl-4-morpholin-4-yl-butanoyl]-cyclosporin (peptide)"
21,3.2,"3-[D-Ala]-4[(2S,3S)-2-Amino-4-[4-(2-methoxy-ethyl)-piperazin-1-yl]-3-methyl-butanoyl]-cyclosporin (peptide)"
22,0.4,"3-[D-Ala]-4[(2S,3S)-3-methyl-2-(methylamino)-4-(4-(methylsulfonyl)piperazin-1-yl)butanoyl]-cyclosporin (peptide)"

# Biological target: multidrug resistance associated protein 2 (human) (UniProt Q92887)
# Experiment: cell-based or functional assay
# multidrug resistance associated protein 2 (human), sequence (Q92887 whole entry): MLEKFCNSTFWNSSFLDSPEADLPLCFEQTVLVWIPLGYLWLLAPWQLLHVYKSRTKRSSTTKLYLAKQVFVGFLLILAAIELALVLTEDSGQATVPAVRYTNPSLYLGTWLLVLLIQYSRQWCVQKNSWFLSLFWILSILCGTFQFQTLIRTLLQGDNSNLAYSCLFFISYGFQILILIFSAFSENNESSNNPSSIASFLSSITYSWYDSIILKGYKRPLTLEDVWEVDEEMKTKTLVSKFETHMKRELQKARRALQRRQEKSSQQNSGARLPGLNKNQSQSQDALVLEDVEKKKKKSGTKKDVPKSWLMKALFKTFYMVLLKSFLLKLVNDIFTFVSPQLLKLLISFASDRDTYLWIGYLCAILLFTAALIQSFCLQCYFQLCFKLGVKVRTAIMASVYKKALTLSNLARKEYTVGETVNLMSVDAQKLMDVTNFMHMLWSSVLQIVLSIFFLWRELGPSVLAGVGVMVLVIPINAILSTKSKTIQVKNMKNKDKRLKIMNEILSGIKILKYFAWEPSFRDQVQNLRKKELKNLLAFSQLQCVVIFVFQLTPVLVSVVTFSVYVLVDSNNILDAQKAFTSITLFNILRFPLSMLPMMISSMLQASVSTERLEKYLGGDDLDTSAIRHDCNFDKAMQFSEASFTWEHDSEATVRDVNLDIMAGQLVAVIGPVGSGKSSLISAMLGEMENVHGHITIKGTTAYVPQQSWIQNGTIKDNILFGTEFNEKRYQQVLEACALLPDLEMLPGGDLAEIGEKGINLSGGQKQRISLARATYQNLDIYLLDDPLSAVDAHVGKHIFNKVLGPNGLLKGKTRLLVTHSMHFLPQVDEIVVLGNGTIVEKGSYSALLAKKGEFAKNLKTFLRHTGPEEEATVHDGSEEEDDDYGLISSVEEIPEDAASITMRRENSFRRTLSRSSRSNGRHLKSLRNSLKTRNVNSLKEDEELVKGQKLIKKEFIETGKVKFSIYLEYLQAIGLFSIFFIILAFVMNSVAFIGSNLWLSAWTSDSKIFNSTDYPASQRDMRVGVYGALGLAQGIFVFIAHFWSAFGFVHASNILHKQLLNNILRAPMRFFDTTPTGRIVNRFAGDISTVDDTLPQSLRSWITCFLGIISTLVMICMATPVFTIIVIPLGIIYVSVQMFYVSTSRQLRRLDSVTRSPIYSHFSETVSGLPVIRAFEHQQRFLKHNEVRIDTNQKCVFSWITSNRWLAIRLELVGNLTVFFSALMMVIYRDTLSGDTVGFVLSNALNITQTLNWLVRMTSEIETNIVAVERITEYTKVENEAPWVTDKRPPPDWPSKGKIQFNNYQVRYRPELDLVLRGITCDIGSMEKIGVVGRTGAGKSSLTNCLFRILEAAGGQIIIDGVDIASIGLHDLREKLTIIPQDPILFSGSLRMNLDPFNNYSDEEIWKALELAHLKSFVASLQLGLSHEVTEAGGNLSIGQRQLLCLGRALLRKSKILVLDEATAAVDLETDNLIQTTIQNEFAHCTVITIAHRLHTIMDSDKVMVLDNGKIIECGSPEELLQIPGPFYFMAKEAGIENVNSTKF
row,Substance,MRP2 IC50 [µM]
1,"3-[D-Ala]-4-[(2S,3R)-3-methyl-2-(methylamino)-4-morpholinobutanoyl]-cyclosporin (peptide)",18
2,"3-[D-Ala]-4-[(2S,3R)-5-methoxy-3-methyl-2-(methylamino)pentanoyl]-cyclosporin (peptide)",13

# Second part, the substance after the results:
row,MRP2 IC50 [µM],Substance
1,13,"3-[D-Ala]-4-[(2S,3R)-3-methyl-2-(methylamino)-4-(4-(methylsulfonyl)piperazin-1-yl)butanoyl]-cyclosporin (peptide)"
2,30,"3-[D-Ala]-4-[(2S,3S)-3-methyl-2-(methylamino)-4-(2-((4-methylpiperazine-1-carbonyl)oxy)ethoxy)butanoyl]-cyclosporin (peptide)"
3,23,"3-[D-Ala]-4-[(2S,3S)-3-methyl-2-(methylamino)-4-(2-morpholinoethoxy)butanoyl]-cyclosporin (peptide)"
